The text below walks through data of paper PMC1995591 (Molecular Microbiology, 2007).

T1: His6-KstRMtb (KstR) (Mycobacterium tuberculosis H37Rv, UniProt P96856 22-220)
T1 sequence: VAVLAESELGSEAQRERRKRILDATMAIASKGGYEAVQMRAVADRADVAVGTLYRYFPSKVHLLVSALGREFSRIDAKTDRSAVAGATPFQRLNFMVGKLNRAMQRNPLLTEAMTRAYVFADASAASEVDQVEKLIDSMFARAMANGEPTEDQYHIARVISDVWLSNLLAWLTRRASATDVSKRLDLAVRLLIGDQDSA

B1: Rv3545c/Rv3546 probe (dsDNA)
DNA 1: ATAGTAATGAAACGTGTTCTAGCCTGGCC
DNA 2: GGCCAGGCTAGAACACGTTTCATTACTAT
B2: Rv3570c/Rv3571 probe, motif 1 (dsDNA)
DNA 1: GAAAGACTAGAACACGTTCCGATTTGTGT
DNA 2: ACACAAATCGGAACGTGTTCTAGTCTTTC
B3: Rv3515c/Rv3516 probe (Table 2 prints Rv3515c/Rv3532) (dsDNA)
DNA 1: ACCAAACTAGAACGTGTTACATTTCTTGA
DNA 2: TCAAGAAATGTAACACGTTCTAGTTTGGT
B4: Rv0223c probe (dsDNA)
DNA 1: GCGAAACGAGAACGTGTTCCATTATTAGG
DNA 2: CCTAATAATGGAACACGTTCTCGTTTCGC
B5: Rv1894c/Rv1895 probe (dsDNA)
DNA 1: ATAGAACTGAAACGTGTTCTAGTTTAGTA
DNA 2: TACTAAACTAGAACACGTTTCAGTTCTAT
B6: Rv0551c/Rv0552 probe (dsDNA)
DNA 1: TCCAAATTGCAACACGTTCTAGTCTTGCC
DNA 2: GGCAAGACTAGAACGTGTTGCAATTTGGA
B7: Rv3573c/Rv3574 (kstR) 29 bp probe (dsDNA)
DNA 1: TGCCCACTAGAACGTGTTCTAATAGTGCT
DNA 2: AGCACTATTAGAACACGTTCTAGTGGGCA
B8: Rv0953c/Rv0954 probe (dsDNA)
DNA 1: GCGCAGGTGGAACACGTTCTAATTCGGTG
DNA 2: CACCGAATTAGAACGTGTTCCACCTGCGC
B9: Rv3503c/Rv3504 probe (dsDNA)
DNA 1: CAGAGACTAGAACGTGTTACAACCGGGAA
DNA 2: TTCCCGGTTGTAACACGTTCTAGTCTCTG
B10: Rv0940c probe (dsDNA)
DNA 1: GTCAAATTAGAACACGTTCTAATCTCGTT
DNA 2: AACGAGATTAGAACGTGTTCTAATTTGAC
B11: Rv3570c/Rv3571 probe, motif 2 (dsDNA)
DNA 1: TCATAACTAGAACATGTTACAGAAAACCC
DNA 2: GGGTTTTCTGTAACATGTTCTAGTTATGA
B12: Rv3520c/Rv3521 probe (dsDNA)
DNA 1: TGTCGAGTAGAACAGGTTCTAACAACGGT
DNA 2: ACCGTTGTTAGAACCTGTTCTACTCGACA
B13: Rv3531c/Rv3532 probe (dsDNA)
DNA 1: TCGACACTAGAACGTGTTCCTGTTTTGCG
DNA 2: CGCAAAACAGGAACACGTTCTAGTGTCGA
B14: His6-tagged KstRMtb (Mycobacterium tuberculosis TetR-type regulator Rv3574) (natural protein)
chain: MSSANTNTSSAPDAPPRAVMKVAVLAESELGSEAQRERRKRILDATMAIASKGGYEAVQMRAVADRADVAVGTLYRYFPSKVHLLVSALGREFSRIDAKTDRSAVAGATPFQRLNFMVGKLNRAMQRNPLLTEAMTRAYVFADASAASEVDQVEKLIDSMFARAMANGEPTEDQYHIARVISDVWLSNLLAWLTRRASATDVSKRLDLAVRLLIGDQDSA
B15: unlabelled kstR 29 bp probe (dsDNA)
DNA 1: TGCCCACTAGAACGTGTTCTAATAGTGCT
DNA 2: AGCACTATTAGAACACGTTCTAGTGGGCA

The first series concerns the target T1, His6-KstRMtb (KstR). Kind of series: EMSA.
For B1, the binding result is on record as “binds”. Regarding B2, the binding result was “binds”. Same read-out and setting: under B3 stands “binds”. Still for that read-out and setting: then B4, with “no binding”.

Turning to B5, the binding result is on record as “binds”. Still for that read-out and setting: then B6, with “binds”. Same read-out and setting: then B7, with “binds”; and B8, with “binds”. In the case of B9, the binding result is “binds”. Consider B10, for which the binding result was “binds”. As for B11, the binding result is “binds”. Turning to B12, the binding result is reported as “binds”.

In the case of B13, the binding result was “binds”.

The next series deals with the molecule itself. Description: SEC.
Regarding B14, the “stoichiometry N” value came to 2.

The target in another series is T1, His6-KstRMtb (KstR). Kind of series: competition.
For B15, the binding result is listed as “binds”.
